Patent publication US20190015518A1, “DRUG DELIVERY COMPOSITIONS AND METHODS” (priority 2016, published 2019)

Assays:
[1] = Pharmacokinetics in three tumor-bearing dogs (three-compartmental model); assay type: in vivo, dog; conditions: 10 mg/m2
Method: An open label, multiple dose/dosage phase I/II trial of 75HA-Lys-Pt was conducted at the University of Missouri Veterinary Medical Teaching Hospital (MU-VMTH). The clinical trial protocol was approved by the University of Missouri ACUC. Dogs of any age, sex, or breed presented to the MU-VMTH oncology service with the a histological diagnosis of anal sac carcinoma, oral squamous cell carcinoma, oral melanoma, nasal carcinoma, or digital squamous cell carcinoma with a performance score of 0 or 1 (0: normal activity; 1: restricted activity; 2: compromised activity; 3: disabled; 4: dead) and without comorbid conditions that would limit life expectancy to less than nine weeks were offered enrollment in the trial.
Following complete staging, client consent was obtained to enroll each dog in the study. Once enrolled in the study, longest tumor diameters of all target lesions were recorded. An indwelling jugular catheter was placed to facilitate collection of blood samples. Dogs received 10 to 30 mg/m^2 intra-tumoral injections through 1 to 3 pre-placed 22-ga spinal needles once every three weeks for up to four planned doses. Dogs were sedated or anesthetized for each treatment, and a 2-mL blood sample was collected from the jugular catheter at 0.5, 1, 2, 4, and 24 hours following drug administration. Blood samples were spun, plasma was collected and frozen within two hours. A CBC and renal profile with urinalysis were conducted prior to and one week after each treatment. Some dogs experiencing apparent adverse effects of drug administration had complete biomedical profiles performed. Tumor measurements were collected three weeks following each administration to assess response.
Serum samples of 3 dogs were diluted 20-fold in 1% HNO3, and vortexed prior to inductively coupled plasma mass spectrometry (ICP-MS) analysis. The platinum concentration of serum was determined using an Agilent 7500i ICP-MS. A calibration curve was generated from 1 to 50 ppb platinum (acceptable criterion R^2>0.995) and 50-ppb bismuth was used as an internal standard. […] The pharmacokinetics were modeled using a SAAM II three-compartmental model.
The serum pharmacokinetics data was modeled using a three-compartmental model with an injection site compartment (q3), a serum compartment (q1), and a tissue compartment (q2). […] Three transfer constants, k(1,3), k(1,2) and k(2,1), and one loss constant, k(0,1), were assigned to the model. The k(1,3) defined the drug absorption process allowing the transfer of HA-Pt from the injection site compartment to the serum compartment. A reversible k(3,1) was not necessary as a sink condition was assumed. Due to the concentration gradient between the injection site and the central serum compartments, drug redistribution back to the injection site was not expected. […] Drug transfer and equilibrium between plasma and tissue compartments were represented by k(1,2) and k(2,1). Post-injection drug diffused from the tissue at the injection site to the blood capillaries and the lymphatic vessels. Eventually the drug molecules entered the systemic circulation and distributed into organs. It is likely that the highly perfused organs, such as liver and kidneys, established equilibrium sooner than organs with low blood flow.

[2] = Rehydration time of lyophilized HA-Lys-Pt; assay type: physicochemical
Method: 33HA-Lys-Pt (MW of HA: 33 kDa) from batch 33_01015 was used to evaluate the impact of trehalose as an excipient and lyoprotectant. […] The solution was freeze-dried using the following program. Samples were frozen in a −80° C. freezer for 4 hours. The vials were transferred to a freeze dryer and kept at −40° C. for 1.5 hours. The condenser point was set at −70° C. The vacuum setpoint was 100 mTorr. The parameters for primary drying were 30 hours at −35° C. and 10 mTorr. The parameters for secondary drying were 5 hours at 2° C. and 10 mTorr, followed by another 5 hours at 8° C. and 10 mTorr. […] During rehydration, 500-μL of water was added to the vial and the sample was gently shaken. The small molecular weight platinum species such as mono-aquated and di-aquated platinum were separated from the reconstituted 33HA-Lys-Pt using a Centricon centrifugal filter unit (10,000 MWCO, 4000 rpm for 10 min at 4° C.) and analyzed by an HPLC assay. The mobile phase was sodium phosphate solution (10-mM, pH 3.0) at a flow rate of 0.25 mL/min on an Alltech® 250 mm×4.6 mm M/M RP8/cation column thermostated at 25° C.
The solution was freeze-dried using the following program. Samples were frozen in a −80° C. freezer for 4 hours. The vials were transferred to a freeze dryer and kept at −40° C. for 1.5 hours. The condenser point was set at −70° C. The vacuum setpoint was 100 mTorr. The parameters for primary drying were 30 hours at −35° C. and 10 mTorr. The parameters for secondary drying were 5 hours at 2° C. and 10 mTorr, followed by another 5 hours at 8° C. and 10 mTorr. […] During rehydration, 500-μL of water was added to the vial and the sample was gently shaken.
One milliliter of samples were used for all tests. The trehalose percent weights varied from 8-20% wt. The pHs included 4.5, 5, 6, and 7. The solution was freeze-dried using the aforementioned freeze-drying program. […] During rehydration, 1-mL of water was added to the vial and the sample was gently shaken. Diaquated platinum species were separated using the aforementioned Centricon units and analyzed using the aforementioned HPLC method.
Other sample freezing methods were also tested. For examples, samples were gradually frozen in ethanol bath at −80° C. and lyophilized. In addition, samples were flash frozen using liquid nitrogen and lyophilized.
Rehydration using one half of the original sample volume was tested.
Besides trehalose, PEG 200 (2 and 5% wt) was tested as a second excipient to aid the rehydrate process.

Which results are given for “HA-cis-[Pt(NH3)2(N^α-Acetyl-L-Lysine)] [75HA-Lys-Pt]”?
AUC ([1]; Dog 1 (28.7 kg)): 4000 ng·h/mL; Cmax ([1]; Dog 1 (28.7 kg)): 174 ng/mL; Tmax ([1]; Dog 1 (28.7 kg)): 60 min; Vss ([1]; Dog 1 (28.7 kg)): 2 L/kg; AUC ([1]; Dog 2 (25.2 kg)): 900 ng·h/mL; Cmax ([1]; Dog 2 (25.2 kg)): 155 ng/mL; Tmax ([1]; Dog 2 (25.2 kg)): 30 min; Vss ([1]; Dog 2 (25.2 kg)): 33.4 L/kg; AUC ([1]; Dog 3 (6.5 kg)): 2200 ng·h/mL; Cle ([1]; Dog 3 (6.5 kg)): 1.53 mL/min/kg; Cmax ([1]; Dog 3 (6.5 kg)): 128 ng/mL; Tmax ([1]; Dog 3 (6.5 kg)): 30 min; Vss ([1]; Dog 3 (6.5 kg)): 8.9 L/kg; Rehydration Time ([2]; 1.46 mg/mL, pH 6, trehalose 0% wt): >48 h; Rehydration Time ([2]; 1.46 mg/mL, pH 6, trehalose 5% wt): Ca. 12 hour; Rehydration Time ([2]; 1.46 mg/mL, pH 6, trehalose 10% wt): 7 h; Rehydration Time ([2]; 1.46 mg/mL, pH 6, trehalose 15% wt): 6 h; Rehydration Time ([2]; 1.46 mg/mL, pH 7, trehalose 5% wt): ca. 2.5 hour; Rehydration Time ([2]; 1.46 mg/mL, pH 7, trehalose 10% wt): 1 h; Rehydration Time ([2]; 1.46 mg/mL, pH 7, trehalose 15% wt): 1 h; Rehydration Time ([2]; 1.99 mg/mL, pH 4.5, trehalose 15% wt): 26 h; Rehydration Time ([2]; 1.99 mg/mL, pH 4.5, trehalose 20% wt): 26 h; Rehydration Time ([2]; 1.99 mg/mL, pH 5, trehalose 15% wt): 26 h; Rehydration Time ([2]; 1.99 mg/mL, pH 5, trehalose 20% wt): 26 h; Rehydration Time ([2]; 1.99 mg/mL, pH adjusted to 5 at rehydration, trehalose 10% wt): 6 to 20 h; Rehydration Time ([2]; 1.99 mg/mL, pH adjusted to 6 at rehydration, trehalose 10% wt): 6 to 20 h; Rehydration Time ([2]; 1.99 mg/mL, pH adjusted to 7 at rehydration, trehalose 10% wt): 6 to 20 h; Rehydration Time ([2]; 3 mg/mL, pH 5, trehalose 15% wt): >48 h; Rehydration Time ([2]; batch 75_0706, 1.06 mg/mL, pH 5, trehalose 7.5% wt, rehydration using half the original volume): 7 h; Rehydration Time ([2]; batch 75_0706, 1.06 mg/mL, pH 5, trehalose 10% wt, rehydration using half the original volume): 7 h; Rehydration Time ([2]; batch 75_0706, 2.13 mg/mL, pH 5, trehalose 15% wt, Ethanol bath): >48 h; Rehydration Time ([2]; batch 75_0706, 2.13 mg/mL, pH 5, trehalose 20% wt, Ethanol bath): >48 h; Rehydration Time ([2]; batch 75_0706, 2.13 mg/mL, pH 5, trehalose 20% wt, PEG200 2% wt): 48 h; Rehydration Time ([2]; batch 75_0706, 2.13 mg/mL, pH 5, trehalose 20% wt, PEG200 5% wt): 48 h; Rehydration Time ([2]; batch 75_0706, 3.00 mg/mL, pH 5, trehalose 15% wt): >48 h
